Kd and koff data for one molecule are collected here from paper PMC9130890 (2022).

In the assay the target is autologous SHIV_(1157ipd3N4) gp120 monomer (SHIV_(1157ipd3N4)). As to the kind of experiment: BLI.

B1: unmutated common ancestor (UCA) of the J038 lineage (antibody, V domains shown)
VH: QLQLQESGPGLVKPSETLSLTCAVSGGSISSNYWSWIRQPPGKGLEWIGRISGSGGSTDYNPSLKSRVTISTDTSKNQFSLKLSSVTAADTAVYYCAREVAEDDYGYYQPYFDYWGQGVLVTVSS
VL: DIQMTQSPSSLSASVGDRVTITCRASQGISSYLAWYQQKPGKAPKLLIYAASSLQSGVPSRFSGSGSGTDFTLTISSLQPEDFATYYCQQYNSLPLTFGGGTKVEIK
B1 returned a Kd of 37.8 nM and a koff of 0.0023 s⁻¹.

As a reminder, the Kd is the constant that tells how readily two partners part at equilibrium. The term koff denotes the rate constant with which the complex falls apart. A high value points to fast dissociation.
